Source: patent publication US20240093158A1 (ARIZONA BOARD OF REGENTS ON BEHALF OF ARIZONA STATE …, published 2024)

Molecular target: T1, CD16 on human natural killer (NK) cells (human, UniProt P08637 17-254)
T1 construct: whole, on cells
Assay: flow cytometry on human NK cells, BiKE-containing supernatant, PE anti-V5 detection

T1 sequence (P08637 17-254): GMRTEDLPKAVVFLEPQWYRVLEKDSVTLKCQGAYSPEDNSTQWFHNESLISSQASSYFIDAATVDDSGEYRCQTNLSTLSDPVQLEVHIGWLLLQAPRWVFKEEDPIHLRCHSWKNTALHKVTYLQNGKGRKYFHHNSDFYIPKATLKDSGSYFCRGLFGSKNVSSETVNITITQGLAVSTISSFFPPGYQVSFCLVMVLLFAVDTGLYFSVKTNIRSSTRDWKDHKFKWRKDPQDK

B1: Bi-specific Natural Killer and Neutrophil engager (BiKE), CD138-CD16, secreted from MYXV-BiKE-infected cells, with C-terminal V5 tag (bispecific antibody)
chain: DIQMTQSTSSLSASLGDRVTISCSASQGINNYLNWYQQKPDGTVELLIYYTSTLQSGVPSRFSGSGSGTDYSLTISNLEPEDIGTYYCQQYSKLPRTFGGGTKLEIKGGGGSGGGGSGGGGSSQVQLQQSGSELMMPGASVKISCKATGYTFSNYWIEWVKQRPGHGLEWIGEILPGTGRTIYNEKFKGKATFTADISSNTVQMQLSSLTSEDSAVYYCARRDYYGNFYYAMDYWGQGTSVTVSSGGGGSGGGGSQVTLKESGPGILQPSQTLSLTCSFSGFSLRTSGMGVGWIRQPSGKGLEWLAHIWWDDDKRYNPALKSRLTISKDTSSNQVFLKIASVDTADTATYYCAQINPAWFAYWGQGTLVTVSAGGGGSGGGGSGGGGSDTVLTQSPASLAVSLGQRATISCKASQSVDFDGDSFMNWYQQKPGQPPKLLIYTTSNLESGIPARFSASGSGTDFTLNIHPVEEEDTATYYCQQSNEDPYTFGGGTKLEIKGKPIPNPLLGLDST
notes: Tested as secreted protein in supernatants of MYXV-BiKE-infected RK13 or Vero cells and detected through its V5 tag; Concentration was not determined; also called huBiKE; CD138-CD16 BiKE
B1: binds.
